Measurements taken from US20240327505A1.
pKd: −log10 of the molar value.

Key:
[1] = target: SARS-CoV-1 spike protein on pseudovirus (SARS-CoV-1) (UniProt P59594); assay: cell-based or functional assay
[2] = target: SARS-CoV-2 Wuhan-1 full-length Spike protein on pseudovirus (SARS-CoV-2) (UniProt P0DTC2); assay: cell-based or functional assay
[3] = target: SARS-CoV-2 spike protein on fully infectious (replication-competent) SARS-CoV-2 virus (SARS-CoV-2) (UniProt P0DTC2); assay: cell-based or functional assay
[4] = target: SARS-CoV-2 Spike (S) trimer (SARS-CoV-2) (UniProt P0DTC2); assay: SPR binning (Carterra LSA), antibody amine-coupled to the chip as ligand
[5] = target: SARS-CoV-2 spike S1 protein (SARS-CoV-2) (UniProt P0DTC2)
[6] = target: SARS-CoV-2 spike receptor-binding domain (RBD) (SARS-CoV-2) (UniProt P0DTC2)
[7] = target: SARS-CoV-2 Spike (S) trimer (SARS-CoV-2) (UniProt P0DTC2); assay: ELISA on coated S trimer, 1:50

With COVA1-21 (AB-010159) (antibody) as the substance, how does the Pseudovirus Neturalization [1] read?
Its Pseudovirus Neturalization is greater than 50 µg/mL.

What about the Pseudovirus Neturalization [2] of the same substance?
The Pseudovirus Neturalization was 21 µg/mL.

Which results are given for CR3022 (AB-009073) (antibody)?
Pseudovirus Neturalization [1]: 2.61 µg/mL; Pseudovirus Neturalization [2]: > 50 µg/mL; Neutralization (Infectious virus; (µg/mL)) [3]: > 50 µg/mL; response as ligand (RU) [4]: < 20 RU

Which Pseudovirus Neturalization [1] does the source give for “LY-CoV555 | Bamlanivimab (AB-010160) (antibody)” here?
The Pseudovirus Neturalization was greater than 50 µg/mL.

“Anti-Nucleocapsid (Neg Control) (antibody)” was tested. Which Pseudovirus Neturalization [1] did it give?
The Pseudovirus Neturalization was greater than 50 µg/mL.

What about the Pseudovirus Neturalization [2] of the same substance?
Its Pseudovirus Neturalization is greater than 50 µg/mL.

Which results are given for CB-6 (AB-009264) (antibody)?
pKd [5]: 7.56; Response [5]: 0.361 nm; koff [5]: 0.0107 s⁻¹; kon [5]: 386000 M⁻¹ s⁻¹; pKd [6]: 8.32; Response [6]: 0.58 nm; koff [6]: 0.000844 s⁻¹; kon [6]: 177000 M⁻¹ s⁻¹; Pseudovirus Neturalization [1]: > 50 µg/mL; Pseudovirus Neturalization [2]: 0.012 µg/mL; Neutralization (Infectious virus; (µg/mL)) [3]: 0.13 µg/mL; OD 450 nm [7]: 2.81 OD

With “REGN10987 | Imdevimab (AB-010157) (antibody)” as the substance, how does the Pseudovirus Neturalization [1] read?
The Pseudovirus Neturalization was greater than 50 µg/mL.

With “REGN10933 | Casirivimab (AB-010156) (antibody)” as the substance, how does the Pseudovirus Neturalization [1] read?
Its Pseudovirus Neturalization is greater than 50 µg/mL.

Which results are given for CA-1 (AB-009265) (antibody)?
pKd [5]: 7.36; Response [5]: 0.27 nm; koff [5]: 0.0127 s⁻¹; kon [5]: 291000 M⁻¹ s⁻¹; pKd [6]: 8.24; Response [6]: 0.53 nm; koff [6]: 0.000681 s⁻¹; kon [6]: 119000 M⁻¹ s⁻¹; Pseudovirus Neturalization [1]: > 50 µg/mL; Pseudovirus Neturalization [2]: 0.266 µg/mL; Neutralization (Infectious virus; (µg/mL)) [3]: 2.46 µg/mL; OD 450 nm [7]: 2.74 OD
